# From patent US20240270813A1 (UNIVERSITY OF PITTSBURGH OF THE COMMONWEALTH SYSTEM OF …, published 2024)
# “And” between values parts separate entries of the source, which are not always exact repeats. Equal entries are not always repeated.
# Legend:
# [1] = biological target: T1, minor histocompatibility antigen HA-1, immunogenic H variant peptide on HLA-A*02:01 (human); test: CD69 on TCR-transduced Jurkat J.RT3-T3.5-CD8; overnight with A*0201 LCLs (1:1) and titrated HA-1 H peptide; given as a range, upper bound given; full-length, on cells
# T1 peptide: VLHDDLLEA
# [2] = biological target: T1, minor histocompatibility antigen HA-1, …; test: multimer staining
binder,measurement,setting,value
"TCR R (TCR, V domains shown) Valpha: SQQGEEDPQALSIQEGENATMNCSYKTSINNLQWYRQNSGRGLVHLILIRSNEREKHSGRLRVTLDTSKKSSSLLITASRAADTASYFCATEMNSNYQLIWGAGTKLIIKP Vbeta: DTGVSQDPRHKITKRGQNVTFRCDPISEHNRLYWYRQTLGQGPEFLTYFQNEAQLEKSRLLSDRFSAERPKGSFSTLEIQRTEQGDSAMYLCASSPLKGSNYGYTFGSGTRLTVV",EC50 of peptide,[1],≤ 1000 ng/mL and ≤ 1 µM
"TCR V (TCR, V domains shown) Valpha: AQTVTQSQPEMSVQEAETVTLSCTYDTSENNYYLFWYKQPPSRQMILVIRQEAYKQQNATENRFSVNFQKAAKSFSLKISDSQLGDTAMYFCALYSGAGSYQLTFGKGTKLSVIP Vbeta: DTGVSQDPRHKITKRGQNVTFRCDPISEHNRLYWYRQTLGQGPEFLTYFQNEAQLEKSRLLSDRFSAERPKGSFSTLEIQRTEQGDSAMYLCASSLAAGMNTEAFFGQGTRLTVV",binding result,[2],recognises
"TCR C (TCR, V domains shown) Valpha: KQEVTQIPAALSVPEGENLVLNCSFTDSAIYNLQWFRQDPGKGLTSLLLIQSSQREQTSGRLNASLDKSSGRSTLYIAASQPGDSATYLCAVRPRTSGTYKYIFGTGTRLKVLA Vbeta: DTGVSQDPRHKITKRGQNVTFRCDPISEHNRLYWYRQTLGQGPEFLTYFQNEAQLEKSRLLSDRFSAERPKGSFSTLEIQRTEQGDSAMYLCASTELSGNTIYFGEGSWLTVV",binding result,[2],recognises
"TCR O (TCR, V domains shown) Valpha: GENVEQHPSTLSVQEGDSAVIKCTYSDSASNYFPWYKQELGKRPQLIIDIRSNVGEKKDQRIAVTLNKTAKHFSLHITETQPEDSAVYFCAMRNNNDMRFGAGTRLTVKP Vbeta: DTGVSQDPRHKITKRGQNVTFRCDPISEHNRLYWYRQTLGQGPEFLTYFQNEAQLEKSRLLSDRFSAERPKGSFSTLEIQRTEQGDSAMYLCASSLTTLDTQYFGPGTRLTVL",EC50 of peptide,[1],≤ 100 ng/mL and ≤ 100 nM
"TCR Q (TCR, V domains shown) Valpha: GENVEQHPSTLSVQEGDSAVIKCTYSDSASNYFPWYKQELGKRPQLIIDIRSNVGEKKDQRIAVTLNKTAKHFSLHITETQPEDSAVYFCAASNPTGANSKLTFGKGITLSVRP Vbeta: DTGVSQDPRHKITKRGQNVTFRCDPISEHNRLYWYRQTLGQGPEFLTYFQNEAQLEKSRLLSDRFSAERPKGSFSTLEIQRTEQGDSAMYLCASSLVRNEKLFFGSGTQLSVL",EC50 of peptide,[1],≤ 1000 ng/mL and ≤ 1 µM
"TCR E (TCR, V domains shown) Valpha: AQSVAQPEDQVNVAEGNPLTVKCTYSVSGNPYLFWYVQYPNRGLQFLLKYITGDNLVKGSYGFEAEFNKSQTSFHLKKPSALVSDSALYFCAVRGPTSGTYKYIFGTGTRLKVLA Vbeta: DTGVSQDPRHKITKRGQNVTFRCDPISEHNRLYWYRQTLGQGPEFLTYFQNEAQLEKSRLLSDRFSAERPKGSFSTLEIQRTEQGDSAMYLCASSLVSGNEQFFGPGTRLTVL",binding result,[2],recognises
"TCR X (TCR, V domains shown) Valpha: GENVEQHPSTLSVQEGDSAVIKCTYSDSASNYFPWYKQELGKRPQLIIDIRSNVGEKKDQRIAVTLNKTAKHFSLHITETQPEDSAVYFCVVLGGAGNMLTFGGGTRLMVKP Vbeta: DTGVSQDPRHKITKRGQNVTFRCDPISEHNRLYWYRQTLGQGPEFLTYFQNEAQLEKSRLLSDRFSAERPKGSFSTLEIQRTEQGDSAMYLCASSLTVSDGYTFGSGTRLTVV",binding result,[2],recognises
"TCR D (TCR, V domains shown) Valpha: AQSVAQPEDQVNVAEGNPLTVKCTYSVSGNPYLFWYVQYPNRGLQFLLKYITGDNLVKGSYGFEAEFNKSQTSFHLKKPSALVSDSALYFCAVRAPTSGTYKYIFGTGTRLKVLA Vbeta: DTGVSQDPRHKITKRGQNVTFRCDPISEHNRLYWYRQTLGQGPEFLTYFQNEAQLEKSRLLSDRFSAERPKGSFSTLEIQRTEQGDSAMYLCASSLVSGNEQFFGPGTRLTVL",binding result,[2],recognises
"TCR Z (TCR, V domains shown) Valpha: QQVMQIPQYQHVQEGEDFTTYCNSSTTLSNIQWYKQRPGGHPVFLIQLVKSGEVKKQKRLTFQFGEAKKNSSLHITATQTTDVGTYFCAGPKGNTPLVFGKGTRLSVIA Vbeta: DTGVSQDPRHKITKRGQNVTFRCDPISEHNRLYWYRQTLGQGPEFLTYFQNEAQLEKSRLLSDRFSAERPKGSFSTLEIQRTEQGDSAMYLCASSLTVSYEQYFGPGTRLTVT",binding result,[2],recognises
"TCR AA (TCR, V domains shown) Valpha: QQQVKQSPQSLIVQKGGISIINCAYENTAFDYFPWYQQFPGKGPALLIAIRPDVSEKKEGRFTISFNKSAKQFSLHIMDSQPGDSATYFCAASSPGTYKYIFGTGTRLKVLA Vbeta: DTGVSQDPRHKITKRGQNVTFRCDPISEHNRLYWYRQTLGQGPEFLTYFQNEAQLEKSRLLSDRFSAERPKGSFSTLEIQRTEQGDSAMYLCASSLLKNTEAFFGQGTRLTVV",binding result,[2],recognises
"TCR W (TCR, V domains shown) Valpha: AQSVAQPEDQVNVAEGNPLTVKCTYSVSGNPYLFWYVQYPNRGLQFLLKYITGDNLVKGSYGFEAEFNKSQTSFHLKKPSALVSDSALYFCAVRDPTSGTYKYIFGTGTRLKVLA Vbeta: DTGVSQDPRHKITKRGQNVTFRCDPISEHNRLYWYRQTLGQGPEFLTYFQNEAQLEKSRLLSDRFSAERPKGSFSTLEIQRTEQGDSAMYLCASSLVQGNEQFFGPGTRLTVL",binding result,[2],recognises
"TCR AD (TCR, V domains shown) Valpha: SQQGEEDPQALSIQEGENATMNCSYKTSINNLQWYRQNSGRGLVHLILIRSNEREKHSGRLRVTLDTSKKSSSLLITASRAADTASYFCATVPTDYMYSGGGADGLTFGKGTHLIIQP Vbeta: DTGVSQNPRHKITKRGQNVTFRCDPISEHNRLYWYRQTLGQGPEFLTYFQNEAQLEKSRLLSDRFSAERPKGSFSTLEIQRTEQGDSAMYLCASSLVRLDGYTFGSGTRLTVV",binding result,[2],recognises
"TCR AC (TCR, V domains shown) Valpha: SQQGEEDPQALSIQEGENATMNCSYKTSINNLQWYRQNSGRGLVHLILIRSNEREKHSGRLRVTLDTSKKSSSLLITASRAADTASYFCAKNDMRFGAGTRLTVKP Vbeta: DTGVSQNPRHKITKRGQNVTFRCDPISEHNRLYWYRQTLGQGPEFLTYFQNEAQLEKSRLLSDRFSAERPKGSFSTLEIQRTEQGDSAMYLCASSLLVGETQYFGPGTRLLVL",binding result,[2],recognises
"TCR AB (TCR, V domains shown) Valpha: AQSVAQPEDQVNVAEGNPLTVKCTYSVSGNPYLFWYVQYPNRGLQFLLKYITGDNLVKGSYGFEAEFNKSQTSFHLKKPSALVSDSALYFCAVRVPTGGYQKVTFGIGTKLQVIP Vbeta: DTGVSQNPRHKITKRGQNVTFRCDPISEHNRLYWYRQTLGQGPEFLTYFQNEAQLEKSRLLSDRFSAERPKGSFSTLEIQRTEQGDSAMYLCASKLTDTQYFGPGTRLTVL",binding result,[2],recognises
"TCR AJ (TCR, V domains shown) Valpha: EDQVTQSPEALRLQEGESSSLNCSYTVSGLRGLFWYRQDPGKGPEFLFTLYSAGEEKEKERLKATLTKKESFLHITAPKPEDSATYLCAVHSNAGGTSYGKLTFGQGTILTVHP Vbeta: DAGVTQSPTHLIKTRGQHVTLRCSPISGHKSVSWYQQVLGQGPQFIFQYYEKEERGRGNFPDRFSARQFPNYSSELNVNALLLGDSALYLCASSADRGSPLHFGNGTRLTVT",binding result,[2],recognises
"TCR P (TCR, V domains shown) Valpha: AQSVSQHNHHVILSEAASLELGCNYSYGGTVNLFWYVQYPGQHLQLLLKYFSGDPLVKGIKGFEAEFIKSKFSFNLRKPSVQWSDTAEYFCAVRDSGAGSYQLTFGKGTKLSVIP Vbeta: DTGVSQDPRHKITKRGQNVTFRCDPISEHNRLYWYRQTLGQGPEFLTYFQNEAQLEKSRLLSDRFSAERPKGSFSTLEIQRTEQGDSAMYLCASLTGTVYNEQFFGPGTRLTVL",EC50 of peptide,[1],≤ 100 ng/mL and ≤ 100 nM
"TCR T (TCR, V domains shown) Valpha: SQQGEEDPQALSIQEGENATMNCSYKTSINNLQWYRQNSGRGLVHLILIRSNEREKHSGRLRVTLDTSKKSSSLLITASRAADTASYFCATPSGNTPLVFGKGTRLSVIA Vbeta: DTGVSQDPRHKITKRGQNVTFRCDPISEHNRLYWYRQTLGQGPELLTYFQNEAQLEKSRLLSDRFSAERPKGSFSTLEIQRTEQGDSAMYLCASSQLAGVIEQFFGPGTRLTVL",EC50 of peptide,[1],≤ 1000 ng/mL and ≤ 1 µM
"TCR S (TCR, V domains shown) Valpha: DAKTTQPPSMDCAEGRAANLPCNHSTISGNEYVYWYRQIHSQGPQYIIHGLKNNETNEMASLIITEDRKSSTLILPHATLRDTAVYYCIVRASTSGTYKYIFGTGTRLKVLA Vbeta: DTGVSQDPRHKITKRGQNVTFRCDPISEHNRLYWYRQTLGQGPEFLTYFQNEAQLEKSRLLSDRFSAERPKGSFSTLEIQRTEQGDSAMYLCASSPGTVYNEQFFGPGTRLTVL",EC50 of peptide,[1],≤ 1000 ng/mL and ≤ 1 µM
"TCR A (TCR, V domains shown) Valpha: AQSVAQPEDQVNVAEGNPLTVKCTYSVSGNPYLFWYVQYPNRGLQFLLKYITGDNLVKGSYGFEAEFNKSQTSFHLKKPSALVSDSALYFCAVRGGSYKYIFGTGTRLKVLA Vbeta: DTGVSQDPRHKITKRGQNVTFRCDPISEHNRLYWYRQTLGQGPEFLTYFQNEAQLEKSRLLSDRFSAERPKGSFSTLEIQRTEQGDSAMYLCASTPGTVYNEQFFGPGTRLTVL",binding result,[2],recognises
"TCR F (TCR, V domains shown) Valpha: GENVEQHPSTLSVQEGDSAVIKCTYSDSASNYFPWYKQELGKRPQLIIDIRSNVGEKKDQRIAVTLNKTAKHFSLHITETQPEDSAVYFCAAHLTGGGNKLTFGTGTQLKVEL Vbeta: DTGVSQDPRHKITKRGQNVTFRCDPISEHNRLYWYRQTLGQGPEFLTYFQNEAQLEKSRLLSDRFSAERPKGSFSTLEIQRTEQGDSAMYLCASSSRAGGETQYFGPGTRLLVL",binding result,[2],recognises
"TCR Y (TCR, V domains shown) Valpha: SQQGEEDPQALSIQEGENATMNCSYKTSINNLQWYRQNSGRGLVHLILIRSNEREKHSGRLRVTLDTSKKSSSLLITASRAADTASYFCATAYSGGGADGLTFGKGTHLIIQP Vbeta: DTGVSQNPRHKITKRGQNVTFRCDPISEHNRLYWYRQTLGQGPEFLTYFQNEAQLEKSRLLSDRFSAERPKGSFSTLEIQRTEQGDSAMYLCASSLIRAEKLFFGSGTQLSVL",binding result,[2],recognises
